Test results: patent US20230374127A1 (LG CHEM, published 2023)

Molecular target: T1, human LILRB1 protein (LILRB1-His, RnD systems Cat. No. 8989-T2) (human, UniProt Q8NHL6 24-458, limits assumed)
T1 construct: Bought protein; also called LILRB1 antigen; the antigen, LILRB1; not shown: His tag
Assay: SPR, Biacore T200; antibody captured by anti-human IgG (Fc), LILRB1-His injected 25-400 nM
Experimental: The binding affinities of the 19 antibodies, which were selected in Example 3, to the antigen, LILRB1, were measured using Biacore T200 (GE healthcare). An anti-human IgG (Fc) antibody (GE healthcare, Cat. No. BR-1008-39, final concentration of 25 μg/mL) was flowed at the flow rate of 5 μL/min for 360 seconds to be immobilized at 5000-7000 RU on Series S Sensor Chip CM5 (GE healthcare, Cat. No. BR-1005-30) using Amine Coupling Kit (GE healthcare, Cat. No. BR-1000-50).

T1 sequence (Q8NHL6 24-458 limits assumed): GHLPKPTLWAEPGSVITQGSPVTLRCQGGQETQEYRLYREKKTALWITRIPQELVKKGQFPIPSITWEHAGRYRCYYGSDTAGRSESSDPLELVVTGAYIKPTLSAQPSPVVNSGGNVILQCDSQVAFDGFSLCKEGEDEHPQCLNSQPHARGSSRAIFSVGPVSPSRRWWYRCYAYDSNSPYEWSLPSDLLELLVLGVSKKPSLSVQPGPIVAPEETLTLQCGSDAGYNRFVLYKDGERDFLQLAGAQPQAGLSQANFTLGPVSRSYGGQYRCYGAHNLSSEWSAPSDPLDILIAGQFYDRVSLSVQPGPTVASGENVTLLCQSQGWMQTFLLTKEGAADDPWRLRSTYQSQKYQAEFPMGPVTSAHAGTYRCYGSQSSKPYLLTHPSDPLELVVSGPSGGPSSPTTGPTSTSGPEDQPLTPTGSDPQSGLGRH

Kd: 24.1 nM | koff: 0.000298 s⁻¹ | kon: 12300 M⁻¹ s⁻¹
B1: anti-LILRB1 antibody No. 10 (antibody, human IgG4 S228P, kappa, F234A L235A, V domains shown)
VH: QVQLVQSGAEVKKPGSSVKVSCKASGGTFSSHYMHWVRQAPGQGLEWMGWISPYLGSTNYAQKFQGRVTITADESTSTAYMELSSLRSEDTAVYYCARDETGSTYGAFDYWGQGTLVTVSS
VL: DIQMTQSPSSLSASVGDRVTITCRASQSISNYLNWYQQKPGKAPKLLIYAASNLQSGVPSRFSGSGSGTDFTLTISSLQPEDFATYYCQQSYSFPFTFGQGTKVEIKR
notes: Human IgG4 / kappa, expressed in ExpiCHO-S cells; also called clone 10
